Measured values: patent US10064926B2, “Peptides and combination of peptides for use in immunotherapy against hepatocellular carcinoma (HCC) and other cancers” (Immatics biotechnologies GmbH, priority 2014, dated 2018)

These substances were tested against HLA-A*02 (Homo sapiens, UniProt P04439, D140Y/D185E/D98H/E176V/E277Q/G131W/G231S/I119V/I121R/I166T/I218V/N151K/N90K/P208A/P217A/Q86G/Q94H/R138H/R169H) (assay: UV-ligand exchange / peptide binding to MHC class I (beta2m ELISA)). Details: Table 10A; peptide exchange yield, UV-ligand exchange, β2m ELISA.
Description: Candidate peptides for T cell based therapies according to the present invention were further tested for their MHC binding capacity (affinity). The individual peptide-MHC complexes were produced by UV-ligand exchange, where a UV-sensitive peptide is cleaved upon UV-irradiation, and exchanged with the peptide of interest as analyzed. Only peptide candidates that can effectively bind and stabilize the peptide-receptive MHC molecules prevent dissociation of the MHC complexes. To determine the yield of the exchange reaction, an ELISA was performed based on the detection of the light chain (β2m) of stabilized MHC complexes. The assay was performed as generally described in Rodenko et al. (Rodenko B, Toebes M, Hadrup S R, van Esch W J, Molenaar A M, Schumacher T N, Ovaa H. Generation of peptide-MHC class I complexes through UV-mediated ligand exchange. Nat Protoc. 2006; 1(3):1120-32).
96 well MAXISorp plates (NUNC) were coated over night with 2 ug/ml streptavidin in PBS at room temperature, washed 4× and blocked for 1 h at 37° C. in 2% BSA containing blocking buffer. Refolded HLA-A*0201/MLA-001 monomers served as standards, covering the range of 15-500 ng/ml. Peptide-MHC monomers of the UV-exchange reaction were diluted 100 fold in blocking buffer. Samples were incubated for 1 h at 37° C., washed four times, incubated with 2 ug/ml HRP conjugated anti-β2m for 1 h at 37° C., washed again and detected with TMB solution that is stopped with […]. Absorption was measured at 450 nm. Candidate peptides that show a high exchange yield (preferably higher than 50%, most preferred higher than 75%) are generally preferred for a generation and production of antibodies or fragments thereof, and/or T cell receptors or fragments thereof, as they show sufficient avidity to the MHC molecules and prevent dissociation of the MHC complexes.

Row | Substance | Peptide exchange (MHC class I binding score)
1 | 220 (SLLEKELESV; listed as Homo sapiens) [compound 220] | +++ (50%-75% = +++)
2 | 221 (ALCEENMRGV; listed as Homo sapiens) [compound 221] | +++ (50%-75% = +++)
3 | 223 (FLFNTENKLLL; listed as Homo sapiens) [compound 223] | ++++ (>=75% = ++++)

Same assay, conditions: Table 10B; peptide exchange yield; HLA-A*02 peptides

Row | Substance | Peptide exchange (MHC class I binding score)
4 | 134 (ALLETNPYLL; listed as Homo sapiens) [compound 134] | “++++” (≥75% = ++++)
5 | 135 (ALLGKIEKV; listed as Homo sapiens) [compound 135] | “+++” (≥50 = +++)
6 | 136 (ALLNQHYQV; listed as Homo sapiens) [compound 136] | “+++” (≥50 = +++)
7 | 137 (ALPTVLVGV; listed as Homo sapiens) [compound 137] | “++++” (≥75% = ++++)
8 | 138 (ALSQVTLLL; listed as Homo sapiens) [compound 138] | “++++” (≥75% = ++++)
9 | 139 (ALSSKPAEV; listed as Homo sapiens) [compound 139] | “+++” (≥50 = +++)
10 | 140 (ALTSISAGV; listed as Homo sapiens) [compound 140] | “++++” (≥75% = ++++)
11 | 141 (AMGEKSFSV; listed as Homo sapiens) [compound 141] | “++++” (≥75% = ++++)
12 | 142 (AVIGGLIYV; listed as Homo sapiens) [compound 142] | “++++” (≥75% = ++++)
13 | 145 (FLIAEYFEHV; listed as Homo sapiens) [compound 145] | “++” (≥20% = ++)
14 | 146 (FLWTEQAHTV; listed as Homo sapiens) [compound 146] | “++” (≥20% = ++)
15 | 147 (GLAPGGLAVV; listed as Homo sapiens) [compound 147] | “+++” (≥50 = +++)
16 | 148 (GLFAPLVFL; listed as Homo sapiens) [compound 148] | “++++” (≥75% = ++++)
17 | 149 (GLLSGLDIMEV; listed as Homo sapiens) [compound 149] | “++++” (≥75% = ++++)
18 | 150 (GLSNLGIKSI; listed as Homo sapiens) [compound 150] | “++++” (≥75% = ++++)
19 | 151 (HLAKVTAEV; listed as Homo sapiens) [compound 151] | “+++” (≥50 = +++)
20 | 152 (KLDNNLDSV; listed as Homo sapiens) [compound 152] | “+++” (≥50 = +++)
21 | 154 (KLTDHLKYV; listed as Homo sapiens) [compound 154] | “+++” (≥50 = +++)
22 | 156 (LLFPHPVNQV; listed as Homo sapiens) [compound 156] | “++++” (≥75% = ++++)
23 | 157 (QLLPNLRAV; listed as Homo sapiens) [compound 157] | “+++” (≥50 = +++)
24 | 158 (RIISGLVKV; listed as Homo sapiens) [compound 158] | “++” (≥20% = ++)

Row | Substance | Peptide exchange (MHC class I binding score)
25 | 159 (RLFPDGIVTV; listed as Homo sapiens) [compound 159] | “+++” (≥50 = +++)
26 | 160 (RLLAKIICL; listed as Homo sapiens) [compound 160] | “++” (≥20% = ++)
27 | 161 (RLLDEQFAV; listed as Homo sapiens) [compound 161] | “+++” (≥50 = +++)
28 | 162 (RLMSALTQV; listed as Homo sapiens) [compound 162] | “++” (≥20% = ++)
29 | 163 (RLTESVLYL; listed as Homo sapiens) [compound 163] | “+++” (≥50 = +++)
30 | 164 (RMLIKLLEV; listed as Homo sapiens) [compound 164] | “+++” (≥50 = +++)
31 | 165 (RVIEHVEQV; listed as Homo sapiens) [compound 165] | “++++” (≥75% = ++++)
32 | 166 (SILDIVTKV; listed as Homo sapiens) [compound 166] | “+++” (≥50 = +++)
33 | 167 (SLAESSFDV; listed as Homo sapiens) [compound 167] | “+++” (≥50 = +++)
34 | 168 (SLAVLVPIV; listed as Homo sapiens) [compound 168] | “+++” (≥50 = +++)
35 | 169 (SLFEWFHPL; listed as Homo sapiens) [compound 169] | “+++” (≥50 = +++)
36 | 170 (SLHNGVIQL; listed as Homo sapiens) [compound 170] | “+++” (≥50 = +++)
37 | 171 (SLIPAVLTV; listed as Homo sapiens) [compound 171] | “+++” (≥50 = +++)
38 | 172 (SLLNFLQHL; listed as Homo sapiens) [compound 172] | “+++” (≥50 = +++)
39 | 173 (SLTSEIHFL; listed as Homo sapiens) [compound 173] | “+++” (≥50 = +++)
40 | 174 (TLAELGAVQV; listed as Homo sapiens) [compound 174] | “+++” (≥50 = +++)
41 | 175 (TLFEHLPHI; listed as Homo sapiens) [compound 175] | “+++” (≥50 = +++)
42 | 176 (TLGQIWDV; listed as Homo sapiens) [compound 176] | “++++” (≥75% = ++++)
43 | 177 (VLDEPYEKV; listed as Homo sapiens) [compound 177] | “+++” (≥50 = +++)
44 | 178 (YIFTTPKSV; listed as Homo sapiens) [compound 178] | “+++” (≥50 = +++)
45 | 179 (YIHNILYEV; listed as Homo sapiens) [compound 179] | “++++” (≥75% = ++++)

Row | Substance | Peptide exchange (MHC class I binding score)
46 | 180 (YLGPHIASVTL; listed as Homo sapiens) [compound 180] | “+++” (≥50 = +++)
47 | 181 (YLLEKFVAV; listed as Homo sapiens) [compound 181] | “+++” (≥50 = +++)
48 | 182 (YLLHFPMAL; listed as Homo sapiens) [compound 182] | “+++” (≥50 = +++)
49 | 183 (YLYNNEEQVGL; listed as Homo sapiens) [compound 183] | “++” (≥20% = ++)
50 | 184 (VVLDGGQIVTV; listed as Homo sapiens) [compound 184] | “+++” (≥50 = +++)
51 | 185 (ALFPALRPGGFQA; listed as Homo sapiens) [compound 185] | “+++” (≥50 = +++)
52 | 186 (VLLAQIIQV; listed as Homo sapiens) [compound 186] | “+++” (≥50 = +++)
53 | 220 (SLLEKELESV; listed as Homo sapiens) [compound 220] | “+++” (≥50 = +++)
54 | 221 (ALCEENMRGV; listed as Homo sapiens) [compound 221] | “+++” (≥50 = +++)
55 | 222 (LTDITKGV; listed as Homo sapiens) [compound 222] | “++” (≥20% = ++)
56 | 223 (FLFNTENKLLL; listed as Homo sapiens) [compound 223] | “++++” (≥75% = ++++)
57 | 229 (KMFESFIESV; listed as Homo sapiens) [compound 229] | “+++” (≥50 = +++)
58 | 231 (RLFNDPVAMV; listed as Homo sapiens) [compound 231] | “++++” (≥75% = ++++)
59 | 233 (ALLGKLDAI; listed as Homo sapiens) [compound 233] | “++++” (≥75% = ++++)
60 | 234 (YLEPYLKEV; listed as Homo sapiens) [compound 234] | “++++” (≥75% = ++++)
61 | 235 (KLFEEIREI; listed as Homo sapiens) [compound 235] | “++++” (≥75% = ++++)
62 | 236 (ALADKELLPSV; listed as Homo sapiens) [compound 236] | “+++” (≥50 = +++)
63 | 237 (ALRGEIETV; listed as Homo sapiens) [compound 237] | “+++” (≥50 = +++)
64 | 238 (AMPPPPPQGV; listed as Homo sapiens) [compound 238] | “++” (≥20% = ++)
65 | 239 (FLLGFIPAKA; listed as Homo sapiens) [compound 239] | “+++” (≥50 = +++)
66 | 240 (FLWERPTLLV; listed as Homo sapiens) [compound 240] | “+++” (≥50 = +++)
